Experiments:
[1] = tested on: H1N1 Influenza A/Ca/04/09; experiment: Comparison to treatment with Tamiflu in infected mice; format: in vivo
H7N3 = format: cell-based, influenza A
H1N1 = format: cell-based, influenza A
H9N2 = format: cell-based, influenza A
H3 HA = format: binding, influenza A; conditions: read-out: affinity
H5N1 = format: cell-based, influenza A
H1 HA = format: binding, influenza A; conditions: read-out: affinity
H5 HA = format: binding, influenza A; conditions: read-out: affinity

| Molecule | survival ([1]; 10 mice per group, treatment from Day +1, to Day 14) | weight attained, of the original weight ([1]; by Day 14) [%] | day at which decline in weight was reversed ([1]; treatment from Day +1) [days] | neutralization of infection (in words) (H7N3) | neutralization of infection (in words) (H1N1) | neutralization of infection (in words) (H9N2) | Kd (H3 HA) [nM] | neutralization of infection (in words) (H5N1) | Kd (H1 HA) [nM] | Kd (H5 HA) [nM] |
| --- | --- | --- | --- | --- | --- | --- | --- | --- | --- | --- |
| CCOC(=O)C1=C[C@@H](OC(CC)CC)[C@H](NC(C)=O)[C@@H](N)C1 [Tamiflu, oseltamivir phosphate, reference compound] | all but two mice were dead before eight days post infection | 92 | ≤ 6 | – | – | – | – | – | – | – |
| MAB8 (antibody, CHAIN (1)...(121) MAB8 heavy chain sequence of variable domain; CHAIN (1)...(108) MAB8 light chain sequence) VH: EVQLVESGGGLVKPGGSLRLSCAASGFTFSTYTMSWVRQAPGQGLEWVSSITRTSSNIYYADSVEGRFTISRDNAKNSLYLQMHSLRVEDTAVYYCARISGVVGPVPFDYWGQGTLITVSS light: DIQMTQSPSSLSASVGDRVTITCRASQTISKYLNWYQQKPGRAPKLLIYSASSLQSGVPSRFTGSGSGTDFTLTITSLQPEDFATYYCQQSYRPSQITFGPGTKVDIK | – | – | – | does not neutralize infection | does not neutralize infection | does not neutralize infection | 16 | does not neutralize infection | 9 | 0.2 |
